# T1: recombinant mouse IL-27 (mouse, UniProt O35228 19-228; Q8K3I6 29-234, limits assumed)
# T1 construct: also called rodent recombinant IL-27
# T1 sequence (looked up) 1: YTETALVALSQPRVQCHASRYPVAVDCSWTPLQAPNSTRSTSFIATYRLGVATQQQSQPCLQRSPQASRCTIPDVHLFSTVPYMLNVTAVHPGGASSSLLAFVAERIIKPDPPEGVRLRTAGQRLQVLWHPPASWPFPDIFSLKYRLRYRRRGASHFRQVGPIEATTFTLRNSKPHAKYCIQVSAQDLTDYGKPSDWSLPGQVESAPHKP
# T1 sequence (looked up) 2: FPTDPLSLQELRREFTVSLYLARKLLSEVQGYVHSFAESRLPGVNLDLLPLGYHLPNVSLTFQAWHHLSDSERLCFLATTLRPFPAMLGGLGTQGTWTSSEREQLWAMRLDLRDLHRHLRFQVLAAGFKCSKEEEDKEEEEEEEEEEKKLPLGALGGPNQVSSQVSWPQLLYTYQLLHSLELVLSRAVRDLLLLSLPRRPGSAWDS
# T2: recombinant human IL-27 (human, UniProt Q14213 21-229; Q8NEV9 29-243)
# T2 construct: Bought from R&D Systems (Cat. 2526-IL); also called hIL-27; rhIL-27
# T2 sequence 1: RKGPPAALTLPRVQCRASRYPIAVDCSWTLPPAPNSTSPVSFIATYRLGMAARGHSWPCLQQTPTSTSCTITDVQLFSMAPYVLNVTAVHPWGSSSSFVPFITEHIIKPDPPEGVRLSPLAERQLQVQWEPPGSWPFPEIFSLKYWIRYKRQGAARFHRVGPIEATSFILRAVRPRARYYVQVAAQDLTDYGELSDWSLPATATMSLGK
# T2 sequence 2: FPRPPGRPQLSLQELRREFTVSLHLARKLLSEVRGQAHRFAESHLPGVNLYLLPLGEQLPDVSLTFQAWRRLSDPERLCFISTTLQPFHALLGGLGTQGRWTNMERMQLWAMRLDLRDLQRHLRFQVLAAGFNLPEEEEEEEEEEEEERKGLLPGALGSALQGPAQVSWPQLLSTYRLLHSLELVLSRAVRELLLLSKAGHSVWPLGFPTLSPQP
# Assays:
# [1] = target: T1, recombinant mouse IL-27; assay: column 'Affinity mIL-27 (M)'; method not given
# [2] = target: T2, recombinant human IL-27; assay: column 'Affinity hIL-27 (M)', property (i); method not given, paragraph 885 names SPR (BIACORE 2000)
# [3] = target: T2, recombinant human IL-27; assay: SPR (Biacore T200), hIL-27 on CM5 chip, single cycle, 1:1 model
# Procedure: (§1) The antibodies were further characterized by surface plasmon resonance (SPR). Kinetic experiments were performed on a Biacore T200 (GE Healthcare, Uppsala, Sweden). All experiments were run at 25° C. with HBS-P+ running buffer (pH 7.4) (GE Healthcare, Little Chalfont, UK) using hIL-27 (R&D Systems, Abingdon, UK). Human IL-27 (hIL-27) antigen was captured on a CM5 chip to ˜16 RU. Immobilization was carried out at a protein concentration of 1 μg/mL in 10 mM acetate buffer pH 5.0. A three point, three-fold dilution range from 3.3 nM to 30 nM of antibody diluted in HBS-P+ buffer without regeneration between each concentration was used. The association phase for the three injections of increasing concentrations of antibody was monitored for 75 seconds each time and a single dissociation phase was measured for 250 seconds following the last injection of antibody. Regeneration of the hIL-27 surface was conducted using a single injection of 2M MgCl₂ for 120 s. Multiple repeats (n=4) of the chimeric antibody were performed throughout the assay to check the stability of the surface and analyte over the kinetic cycles.
# (§2) Both 1:1 binding and bivalent analyte models were used to analyze the data due to the bivalent nature of the antibody. The results from the 1:1 binding model analysis are summarized in Table 4 and results from the bivalent analyte model are summarized in Table 5.
# [4] = target: T2, recombinant human IL-27; assay: SPR, hIL-27 on CM5 chip, bivalent analyte model (kd1)
# Procedure: as §1, §2
# [5] = target: T2, recombinant human IL-27; assay: SPR, hIL-27 on CM5 chip, bivalent analyte model (ka1)
# Procedure: as §1, §2
# [6] = target: T2, recombinant human IL-27; assay: SPR, hIL-27 on CM5 chip, bivalent analyte model
# Procedure: as §1, §2
Binder,binding result [1],Kd [1] [nM],Kd [2] [nM],Kd [3] [nM],Relative KD to Ab7.1 [3],koff [3] [s⁻¹],kon [3] [M⁻¹ s⁻¹],koff [4] [s⁻¹],kon [5] [M⁻¹ s⁻¹],ka2 [6],kd2 [6] [s⁻¹]
"Ab7.13 (antibody, human IgG1, kappa, V domains shown, human IgG1/kappa) VH: EVKLVESGGGLVQPGGSLRLSCAASGFTFTSYSMSWVRQAPGKGLEWVAYISYDGGSAYYPDTVKGRFTISRDNSKKTLYLQMNSLRAEDTAVYYCARHGDYDDDDAMDYWGQGTLVTVSS VL: DIQMTQSPSSLSASVGDRVTITCRASENIYSYLAWYQQKPGKAPKLLVYNAETLTEGVPSRFSGSGSGTDFTLTISSLQPEDFANYYCQHHYGTPLTFGQGTKLEIKR",–,–,–,1.2,1.2,0.0018,1.5e+06,0.0026,740000,0.02 1/RUs,0.053
"Ab7.14 (antibody, human IgG1, kappa, V domains shown, human IgG1/kappa) VH: EVKLVESGGGLVQPGGSLRLSCAASGFTFTSYSMSWVRQAPGKGLEWVAYISYDGGSAYYPDTVKGRFTISRDNSKKTLYLQMNSLRAEDTAVYYCARHGDYDDDDAMDYWGQGTLVTVSS VL: DIQMTQSPSSLSASVGDRVTITCRASENIYSYLAWYQQKPGKAPKLLVYNAETLTEGVPSRFSGSGSGTDFTLTISSLQPEDFATYYCQHHYGTPLTFGQGTKLEIKR",–,–,–,1.2,1.2,0.0018,1.5e+06,0.0026,700000,0.039 1/RUs,0.099
"Ab7.18 (antibody, human IgG1, kappa, V domains shown, human IgG1/kappa) VH: EVQLVESGGGLVQPGGSLRLSCAASGFTFTSYSMSWVRQAPGKGLEWVAYISYDGGSAYYPDTVKGRFTISRDNSKNTLYLQMNSLRAEDTAVYYCARHGDYDDDDAMDYWGQGTLVTVSS VL: DIQMTQSPSSLSASVGDRVTITCRASENIYSYLAWYQQKPGKAPKLLVYNAETLTEGVPSRFSGSGSGTDFTLTISSLQPEDFATYYCQHHYGTPLTFGQGTKLEIKR",–,–,–,1.5,1.4,0.0019,1.3e+06,0.0028,570000,0.053 1/RUs,0.11
"Ab7.20 (antibody, human IgG1, kappa, V domains shown, human IgG1/kappa) VH: EVQLVESGGGLVQPGGSLRLSCAASGFTFTSYSMSWVRQAPGKGLEWVSYISYDGGSAYYPDTVKGRFTISRDNSKNTLYLQMNSLRAEDTAVYYCARHGDYDDDDAMDYWGQGTLVTVSS VL: DIQMTQSPSSLSASVGDRVTITCRASENIYSYLAWYQQKQGKAPKLLVYNAETLTEGVPSRFSGSGSGTDFTLTISSLQPEDFANYYCQHHYGTPLTFGQGTKLDIKR",–,–,–,1.4,1.4,0.0018,1.3e+06,0.0025,620000,0.036 1/RUs,0.086
"Ab7.16 (antibody, human IgG1, kappa, V domains shown, human IgG1/kappa) VH: EVQLVESGGGLVQPGGSLRLSCAASGFTFTSYSMSWVRQAPGKGLEWVAYISYDGGSAYYPDTVKGRFTISRDNSKNTLYLQMNSLRAEDTAVYYCARHGDYDDDDAMDYWGQGTLVTVSS VL: DIQMTQSPSSLSASVGDRVTITCRASENIYSYLAWYQQKQGKAPKLLVYNAETLTEGVPSRFSGSGSGTDFTLTISSLQPEDFANYYCQHHYGTPLTFGQGTKLDIKR",–,–,–,1.5,1.4,0.0018,1.3e+06,0.0027,570000,0.04 1/RUs,0.091

# Now from value to binder:
binding result [1],Kd [1] [nM],Kd [2] [nM],Kd [3] [nM],Relative KD to Ab7.1 [3],koff [3] [s⁻¹],kon [3] [M⁻¹ s⁻¹],koff [4] [s⁻¹],kon [5] [M⁻¹ s⁻¹],ka2 [6],kd2 [6] [s⁻¹],Binder
no binding,–,–,–,–,–,–,–,–,–,–,"SRF557 (antibody, V domains shown, also called SRF557-A; SRF557-B) VH: QVQLVQSGAEVKKPGSSVKVSCKASGGTFSSYAISWVRQAPGQGLEWMGGIIPIFGTANYAQKFQGRVTITADESTSTAYMELSSLRSEDTAVYYCARLGGRGYADEGWYFDLWGRGTLVTVSS VL: not shown"
–,80.5,0.048,–,–,–,–,–,–,–,–,"SRF536 (antibody, V domains shown, also called SRF536-A; SRF536-B) VH: QVQLQQWGAGLLKPSETLSLTCAVYGGSFSEYYWAWIRQPPGKGLEWIGEIDEVGSTNYNPSLKSRVTISVDTSKNQFSLKLSSVTAADTAVYYCARLPMYYYDSSDLPMDVWGQGTTVTVSS VL: not shown"
–,–,–,1.5,1.5,0.0019,1.2e+06,0.0027,550000,0.043 1/RUs,0.097,"Ab7.21 (antibody, human IgG1, kappa, V domains shown, human IgG1/kappa) VH: EVQLVESGGGLVQPGGSLRLSCAASGFTFTSYSMSWVRQAPGKGLEWVSYISYDGGSAYYPDTVKGRFTISRDNSKNTLYLQMNSLRAEDTAVYYCARHGDYDDDDAMDYWGQGTLVTVSS VL: DIQMTQSPSSLSASVGDRVTITCRASENIYSYLAWYQQKPGKAPKLLVYNAETLTEGVPSRFSGSGSGTDFTLTISSLQPEDFANYYCQHHYGTPLTFGQGTKLEIKR"
–,–,–,1.5,1.5,0.0019,1.3e+06,0.0027,580000,0.49 1/RUs,1.11,"Ab7.22 (antibody, human IgG1, kappa, V domains shown, human IgG1/kappa) VH: EVQLVESGGGLVQPGGSLRLSCAASGFTFTSYSMSWVRQAPGKGLEWVSYISYDGGSAYYPDTVKGRFTISRDNSKNTLYLQMNSLRAEDTAVYYCARHGDYDDDDAMDYWGQGTLVTVSS VL: DIQMTQSPSSLSASVGDRVTITCRASENIYSYLAWYQQKPGKAPKLLVYNAETLTEGVPSRFSGSGSGTDFTLTISSLQPEDFATYYCQHHYGTPLTFGQGTKLEIKR"
no binding,–,–,–,–,–,–,–,–,–,–,"SRF416 (antibody, V domains shown, also called SRF416-A; SRF416-B) VH: QVQLQQWGAGLLKPSETLSLTCAVYGGSFSGYYWSWIRQPPGKGLEWIGEIDVDGSTNYNPSLKSRVTISVDTSKNQFSLKLSSVTAADTAVYYCARDGYYYDTSPYDVWGQGTMVTVSS VL: EIVLTQSPATLSLSPGERATLSCRASQSVSSYLAWYQQKPGQAPRLLIYDASNRATGIPARFSGSGSGTDFTLTISSLEPEDFAVYYCQQRDSFPLTFGGGTKVEIK"
no binding,–,1,–,–,–,–,–,–,–,–,"Ab7 (antibody, mouse hybridoma antibody (mIgG2a/kappa); also called isolated anti-EBI3 antibody Ab7; parental Ab7 antibody) heavy: EVKLVESGGGLVQPGGSLKLFCAASGFTFTSYSMSWVRQTPEKRLEWVAYISYDGGSAYYPDTVKGRFSISRDNAKKTLYLQMSSLKSEDTAMYYCARHGDYDDDDAMDYWGQGTSVTVSSAKTTAPSVYPLAPVCGDTTGSSVTLGCLVKGYFPEPVTLTWNSGSLSSGVHTFPAVLQSDLYTLSSSVTVTSSTWPSQSITCNVAHPASSTKVDKKIEPRGPTIKPCPPCKCPAPNLLGGPSVFIFPPKIKDVLMISLSPIVTCVVVDVSEDDPDVQISWFVNNVEVHTAQTQTHREDYNSTLRVVSALPIQHQDWMSGKEFKCKVNNKDLPAPIERTISKPKGSVRAPQVYVLPPPEEEMTKKQVTLTCMVTDFMPEDIYVEWTNNGKTELNYKNTEPVLDSDGSYFMYSKLRVEKKNWVERNSYSCSVVHEGLHNHHTTKSFSRTPGK light: DIQMTQSPASLSASVGETVTITCRASENIYSYLAWYQQKQGKSPQLLVYNAETLTEGVPSRFSGSGSGTQFSLKINSLQPEDFGNYYCQHHYGTPLTFGAGTKLDLKADAAPTVSIFPPSSEQLTSGGASVVCFLNNFYPKDINVKWKIDGSERQNGVLNSWTDQDSKDSTYSMSSTLTLTKDEYERHNSYTCEATHKTSTSPIVKSFNRNEC"
–,1.33,0.0059,–,–,–,–,–,–,–,–,"SRF529 (antibody, V domains shown, also called SRF529-A; SRF529-B) VH: EVQLVESGGGLVKPGGSLRLSCAASGFTFSSYSMNWVRQAPGKGLEWVSSISSSSSYIYYADSVKGRFTISRDNAKNSLYLQMNSLRAEDTAVYYCARDGGRTSYTATAHNWFDPWGQGTLVTVSS VL: not shown"
